Biological target: T1, cyno PD-1 (SPR analyte) (cynomolgus monkey)
T1 construct: Construct of the soluble analyte is not described; also called cynomolgus PD-1
Experiment: SPR, ProteOn XPR36, mAb captured by anti-human IgG Fc, cyno PD-1 as analyte, 25 C
Description: Affinity measurements were performed using a ProteOn XPR36 system (BioRad). […] Approximately 5000 RU (response units) of mAbs were immobilized. The kinetic experiments were performed at 25° C. in running buffer (DPBS+0.01% P20+100 µg/mL BSA). To perform kinetic experiments, 200 RU of mAbs were captured followed by injections of analytes (human and cyno PD-1) at concentrations ranging from 1.563 nM to 400 nM (in a 4-fold serial dilution). The association phase was monitored for 3 minutes at 50 µL/min, then followed by 10 or 15 minutes of buffer flow (dissociation phase). The chip surface was regenerated with two 18 second pulses of 100 mM H₃PO₄ (Sigma, Cat#7961) at 100 µL/min.
The collected data were processed using ProteOn Manager software. First, the data was corrected for background using inter-spots. Then, double reference subtraction of the data was performed by using the buffer injection for analyte injections. The kinetic analysis of the data was performed using a Langmuir 1:1 binding model. The result for each mAb was reported in the format of ka (On-rate), kd (Off-rate) and KD (equilibrium dissociation constant).
Affinity of the antibodies to human and cyno PD-1 was measured using SPR as described in Example 1.

Binder | Kd | koff | kon
PD1B1085 (antibody, human IgG1, kappa, V domains shown, IgG1; also called PD1H585/PD1L469; E57Y (VH) variant of PD1B878) VH: QVQLVQSGSELKKPGASVKVSCKASGYTFTDYSMHWVRQAPGQGLEWMGWINIETGYPTYAQGFTGRFVFSLDTSVSTAYLQISSLKAEDTAVYFCARDYYGTYFYAMDYWGQGTLVTVSS VL: EIVLTQSPATLSLSPGERATLSCTASSSVSSSYLHWYQQKPGLAPRLLIYSTSNLASGIPDRFSGSGSGTDYTLTISRLEPEDFAVYYCHQYHRSPLTFGQGTKLEIKR | 6.45 nM | 0.00129 s⁻¹ | 200000 M⁻¹ s⁻¹
PD1B1086 (antibody, human IgG1, kappa, V domains shown, IgG1; also called PD1H586/PD1L469; E57H (VH) variant of PD1B878) VH: QVQLVQSGSELKKPGASVKVSCKASGYTFTDYSMHWVRQAPGQGLEWMGWINIETGHPTYAQGFTGRFVFSLDTSVSTAYLQISSLKAEDTAVYFCARDYYGTYFYAMDYWGQGTLVTVSS VL: EIVLTQSPATLSLSPGERATLSCTASSSVSSSYLHWYQQKPGLAPRLLIYSTSNLASGIPDRFSGSGSGTDYTLTISRLEPEDFAVYYCHQYHRSPLTFGQGTKLEIKR | 31.8 nM | 0.00544 s⁻¹ | 171000 M⁻¹ s⁻¹
PD1B1087 (antibody, human IgG1, kappa, V domains shown, IgG1; also called PD1H587/PD1L469; E57W (VH) variant of PD1B878) VH: QVQLVQSGSELKKPGASVKVSCKASGYTFTDYSMHWVRQAPGQGLEWMGWINIETGWPTYAQGFTGRFVFSLDTSVSTAYLQISSLKAEDTAVYFCARDYYGTYFYAMDYWGQGTLVTVSS VL: EIVLTQSPATLSLSPGERATLSCTASSSVSSSYLHWYQQKPGLAPRLLIYSTSNLASGIPDRFSGSGSGTDYTLTISRLEPEDFAVYYCHQYHRSPLTFGQGTKLEIKR | 11.6 nM | 0.00247 s⁻¹ | 212000 M⁻¹ s⁻¹
PD1B1088 (antibody, human IgG1, kappa, V domains shown, IgG1; also called PD1H405/PD1L651; V29F (VL) variant of PD1B878) VH: QVQLVQSGSELKKPGASVKVSCKASGYTFTDYSMHWVRQAPGQGLEWMGWINIETGEPTYAQGFTGRFVFSLDTSVSTAYLQISSLKAEDTAVYFCARDYYGTYFYAMDYWGQGTLVTVSS VL: EIVLTQSPATLSLSPGERATLSCTASSSFSSSYLHWYQQKPGLAPRLLIYSTSNLASGIPDRFSGSGSGTDYTLTISRLEPEDFAVYYCHQYHRSPLTFGQGTKLEIKR | 72.4 nM | 0.00479 s⁻¹ | 66100 M⁻¹ s⁻¹
PD1B1089 (antibody, human IgG1, kappa, V domains shown, IgG1; also called PD1H405/PD1L652; S30P (VL) variant of PD1B878) VH: QVQLVQSGSELKKPGASVKVSCKASGYTFTDYSMHWVRQAPGQGLEWMGWINIETGEPTYAQGFTGRFVFSLDTSVSTAYLQISSLKAEDTAVYFCARDYYGTYFYAMDYWGQGTLVTVSS VL: EIVLTQSPATLSLSPGERATLSCTASSSVPSSYLHWYQQKPGLAPRLLIYSTSNLASGIPDRFSGSGSGTDYTLTISRLEPEDFAVYYCHQYHRSPLTFGQGTKLEIKR | 90 nM | 0.00839 s⁻¹ | 93200 M⁻¹ s⁻¹
PD1B1090 (antibody, human IgG1, kappa, V domains shown, IgG1; also called PD1H585/PD1L651; E57Y (VH), V29F (VL) variant of PD1B878) VH: QVQLVQSGSELKKPGASVKVSCKASGYTFTDYSMHWVRQAPGQGLEWMGWINIETGYPTYAQGFTGRFVFSLDTSVSTAYLQISSLKAEDTAVYFCARDYYGTYFYAMDYWGQGTLVTVSS VL: EIVLTQSPATLSLSPGERATLSCTASSSFSSSYLHWYQQKPGLAPRLLIYSTSNLASGIPDRFSGSGSGTDYTLTISRLEPEDFAVYYCHQYHRSPLTFGQGTKLEIKR | 1.43 nM | 0.000185 s⁻¹ | 130000 M⁻¹ s⁻¹
PD1B1091 (antibody, human IgG1, kappa, V domains shown, IgG1; also called PD1H586/PD1L651; E57H (VH), V29F (VL) variant of PD1B878) VH: QVQLVQSGSELKKPGASVKVSCKASGYTFTDYSMHWVRQAPGQGLEWMGWINIETGHPTYAQGFTGRFVFSLDTSVSTAYLQISSLKAEDTAVYFCARDYYGTYFYAMDYWGQGTLVTVSS VL: EIVLTQSPATLSLSPGERATLSCTASSSFSSSYLHWYQQKPGLAPRLLIYSTSNLASGIPDRFSGSGSGTDYTLTISRLEPEDFAVYYCHQYHRSPLTFGQGTKLEIKR | 9.32 nM | 0.000924 s⁻¹ | 99100 M⁻¹ s⁻¹
PD1B1092 (antibody, human IgG1, kappa, V domains shown, IgG1; also called PD1H587/PD1L651; E57W (VH), V29F (VL) variant of PD1B878) VH: QVQLVQSGSELKKPGASVKVSCKASGYTFTDYSMHWVRQAPGQGLEWMGWINIETGWPTYAQGFTGRFVFSLDTSVSTAYLQISSLKAEDTAVYFCARDYYGTYFYAMDYWGQGTLVTVSS VL: EIVLTQSPATLSLSPGERATLSCTASSSFSSSYLHWYQQKPGLAPRLLIYSTSNLASGIPDRFSGSGSGTDYTLTISRLEPEDFAVYYCHQYHRSPLTFGQGTKLEIKR | 3.18 nM | 0.000411 s⁻¹ | 129000 M⁻¹ s⁻¹
PD1B1093 (antibody, human IgG1, kappa, V domains shown, IgG1; also called PD1H585/PD1L652; E57Y (VH), S30P (VL) variant of PD1B878) VH: QVQLVQSGSELKKPGASVKVSCKASGYTFTDYSMHWVRQAPGQGLEWMGWINIETGYPTYAQGFTGRFVFSLDTSVSTAYLQISSLKAEDTAVYFCARDYYGTYFYAMDYWGQGTLVTVSS VL: EIVLTQSPATLSLSPGERATLSCTASSSVPSSYLHWYQQKPGLAPRLLIYSTSNLASGIPDRFSGSGSGTDYTLTISRLEPEDFAVYYCHQYHRSPLTFGQGTKLEIKR | 2.18 nM | 0.000368 s⁻¹ | 169000 M⁻¹ s⁻¹
PD1B1094 (antibody, human IgG1, kappa, V domains shown, IgG1; also called PD1H586/PD1L652; E57H (VH), S30P (VL) variant of PD1B878) VH: QVQLVQSGSELKKPGASVKVSCKASGYTFTDYSMHWVRQAPGQGLEWMGWINIETGHPTYAQGFTGRFVFSLDTSVSTAYLQISSLKAEDTAVYFCARDYYGTYFYAMDYWGQGTLVTVSS VL: EIVLTQSPATLSLSPGERATLSCTASSSVPSSYLHWYQQKPGLAPRLLIYSTSNLASGIPDRFSGSGSGTDYTLTISRLEPEDFAVYYCHQYHRSPLTFGQGTKLEIKR | 12 nM | 0.00162 s⁻¹ | 135000 M⁻¹ s⁻¹
PD1B1095 (antibody, human IgG1, kappa, V domains shown, IgG1; also called PD1H587/PD1L652; E57W (VH), S30P (VL) variant of PD1B878) VH: QVQLVQSGSELKKPGASVKVSCKASGYTFTDYSMHWVRQAPGQGLEWMGWINIETGWPTYAQGFTGRFVFSLDTSVSTAYLQISSLKAEDTAVYFCARDYYGTYFYAMDYWGQGTLVTVSS VL: EIVLTQSPATLSLSPGERATLSCTASSSVPSSYLHWYQQKPGLAPRLLIYSTSNLASGIPDRFSGSGSGTDYTLTISRLEPEDFAVYYCHQYHRSPLTFGQGTKLEIKR | 4.23 nM | 0.000781 s⁻¹ | 185000 M⁻¹ s⁻¹

Biological target: T2, biotinylated Human PD-1/PDCD1 (Acro Biosystems, Cat# PD1-H82E4) (human, UniProt Q15116 25-167, biotinylated)
T2 construct: Bought reagent; whole mature entry named
Experiment: Fab ELISA, Fab captured by anti-Fd(CH1) antibody, 5 nM biotinylated human PD-1, streptavidin-HRP chemiluminescence
Description: For follow-up screening, plasmid DNA was prepared from overnight culture of the TG-1 Escherichia coli cells and the pIX gene was excised by NheI/SpeI digestion. After ligation, the DNA was transformed into TG-1 cells and grown on LB/Agar plates overnight. The next day, colonies were picked, grown overnight, and the cultures used for (i) colony sequencing of the V- regions, and (ii) induction of Fab production. For Fab production, the overnight culture was diluted 100 folds in new media and grown for 5-6 hours at 37° C. Fab production was induced by the addition of fresh media containing IPTG and the cultures were grown overnight at 30° C. The following day, the cultures were spun down and the supernatants, containing the soluble Fab proteins, were used for Fab ELISA. For the ELISA, the soluble Fab proteins were captured onto plates by a polyclonal anti-Fd(CH1) antibody. After washing and blocking, biotinylated Human PD-1/PDCD1 was added at 5 nM concentration. […] The biotinylated human PD-1 was detected by HRP-conjugated streptavidin with chemiluminescence measured in a plate reader.

T2 sequence (Q15116 25-167 limits assumed): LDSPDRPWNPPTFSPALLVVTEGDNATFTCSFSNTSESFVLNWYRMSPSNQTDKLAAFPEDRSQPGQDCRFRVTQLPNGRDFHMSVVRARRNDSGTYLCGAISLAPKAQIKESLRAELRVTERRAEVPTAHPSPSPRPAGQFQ

Binder | fold change in ELISA binding versus the parental Fab
PD1B878 Fab variant with heavy chain PD1H585 (E57Y) (Fab, V domains shown, Soluble Fab of the non-combinatorial CDR scan) VH: QVQLVQSGSELKKPGASVKVSCKASGYTFTDYSMHWVRQAPGQGLEWMGWINIETGYPTYAQGFTGRFVFSLDTSVSTAYLQISSLKAEDTAVYFCARDYYGTYFYAMDYWGQGTLVTVSS VL: EIVLTQSPATLSLSPGERATLSCTASSSVSSSYLHWYQQKPGLAPRLLIYSTSNLASGIPDRFSGSGSGTDYTLTISRLEPEDFAVYYCHQYHRSPLTFGQGTKLEIK | 10 fold
PD1B878 Fab variant with heavy chain PD1H586 (E57H) (Fab, V domains shown, Soluble Fab of the non-combinatorial CDR scan) VH: QVQLVQSGSELKKPGASVKVSCKASGYTFTDYSMHWVRQAPGQGLEWMGWINIETGHPTYAQGFTGRFVFSLDTSVSTAYLQISSLKAEDTAVYFCARDYYGTYFYAMDYWGQGTLVTVSS VL: EIVLTQSPATLSLSPGERATLSCTASSSVSSSYLHWYQQKPGLAPRLLIYSTSNLASGIPDRFSGSGSGTDYTLTISRLEPEDFAVYYCHQYHRSPLTFGQGTKLEIK | 10 fold
PD1B878 Fab variant with heavy chain PD1H587 (E57W) (Fab, V domains shown, Soluble Fab of the non-combinatorial CDR scan) VH: QVQLVQSGSELKKPGASVKVSCKASGYTFTDYSMHWVRQAPGQGLEWMGWINIETGWPTYAQGFTGRFVFSLDTSVSTAYLQISSLKAEDTAVYFCARDYYGTYFYAMDYWGQGTLVTVSS VL: EIVLTQSPATLSLSPGERATLSCTASSSVSSSYLHWYQQKPGLAPRLLIYSTSNLASGIPDRFSGSGSGTDYTLTISRLEPEDFAVYYCHQYHRSPLTFGQGTKLEIK | 10 fold
PD1B878 Fab variant with light chain PD1L651 (V29F) (Fab, V domains shown, Soluble Fab of the non-combinatorial CDR scan) VH: QVQLVQSGSELKKPGASVKVSCKASGYTFTDYSMHWVRQAPGQGLEWMGWINIETGEPTYAQGFTGRFVFSLDTSVSTAYLQISSLKAEDTAVYFCARDYYGTYFYAMDYWGQGTLVTVSS VL: EIVLTQSPATLSLSPGERATLSCTASSSFSSSYLHWYQQKPGLAPRLLIYSTSNLASGIPDRFSGSGSGTDYTLTISRLEPEDFAVYYCHQYHRSPLTFGQGTKLEIK | 10 fold
PD1B878 Fab variant with light chain PD1L652 (S30P) (Fab, V domains shown, Soluble Fab of the non-combinatorial CDR scan) VH: QVQLVQSGSELKKPGASVKVSCKASGYTFTDYSMHWVRQAPGQGLEWMGWINIETGEPTYAQGFTGRFVFSLDTSVSTAYLQISSLKAEDTAVYFCARDYYGTYFYAMDYWGQGTLVTVSS VL: EIVLTQSPATLSLSPGERATLSCTASSSVPSSYLHWYQQKPGLAPRLLIYSTSNLASGIPDRFSGSGSGTDYTLTISRLEPEDFAVYYCHQYHRSPLTFGQGTKLEIK | 10 fold

— patent US20230340155A1 (published 2023)
